Measured values: PMC4227051, “B4GAT1 is the priming enzyme for the LARGE-dependent functional glycosylation of α-dystroglycan” (eLife, 2014)

Legend:
B3GNT2 = biological target: T1, B3GNT2 (Homo sapiens, UniProt Q9NY97); test: radioactive GlcNAc transfer, scintillation counting; assay type: biochemical; details: 0.1 M MES pH 6.5, 10 mM MnCl2, 37 °C, overnight
T1 construct: catalytic domain residues 35-397, secreted; N-terminal 8xHis-AviTag-sfGFP-TEV fusion kept; HEK293F host, Ni-NTA
T1 sequence (Q9NY97 35-397): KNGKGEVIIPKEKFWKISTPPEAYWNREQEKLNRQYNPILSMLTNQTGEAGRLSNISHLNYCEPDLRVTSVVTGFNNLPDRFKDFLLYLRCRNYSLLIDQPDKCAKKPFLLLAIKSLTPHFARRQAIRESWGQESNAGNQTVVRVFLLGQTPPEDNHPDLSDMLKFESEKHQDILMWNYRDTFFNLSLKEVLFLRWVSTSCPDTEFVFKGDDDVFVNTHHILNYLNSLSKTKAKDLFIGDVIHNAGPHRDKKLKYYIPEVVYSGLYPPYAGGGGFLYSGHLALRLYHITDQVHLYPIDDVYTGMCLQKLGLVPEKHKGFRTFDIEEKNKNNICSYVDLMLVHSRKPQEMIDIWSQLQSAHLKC

purified protein [1] = substrate: O=[N+]([O-])c1ccc(O[C@@H]2OC[C@@H](O)[C@H](O)[C@H]2O)cc1; test: purified protein; assay type: biochemical, Homo sapiens; details: 2 mM UDP-GlcA, 0.1 M MES pH 6.5, 10 mM MnCl2, 5 mM MgCl2, 37 °C, 2 h, acceptor tested 200 nM to 2 mM
purified protein [2] = substrate: O=[N+]([O-])c1ccc(O[C@H]2OC[C@@H](O)[C@H](O)[C@H]2O)cc1; test: purified protein; assay type: biochemical, Homo sapiens; details: 2 mM UDP-GlcA, 0.1 M MES pH 6.5, 10 mM MnCl2, 5 mM MgCl2, 37 °C, acceptor tested 200 nM to 2 mM
[3] = 16 h, glucuronyltransferase activity

CC(=O)N[C@H]1[C@@H](OP(=O)(O)OP(=O)(O)OC[C@H]2O[C@@H](n3ccc(=O)[nH]c3=O)[C@H](O)[C@@H]2O)O[C@H](CO)[C@@H](O)[C@@H]1O [UDP-GlcNAc]
radioactive GlcNAc transfer, scintillation counting (B3GNT2; donor, labelled compound, acceptor Gal-β4-GlcNAc-β-pNP): radioactive incorporation of GlcNAc into the N-acetyllactosamine acceptor

CC(=O)N[C@H]1[C@H](Oc2ccc([N+](=O)[O-])cc2)O[C@H](CO)[C@@H](O[C@@H]2O[C@H](CO)[C@H](O)[C@H](O)[C@H]2O)[C@@H]1O [Gal-β4-GlcNAc-β-pNP]
radioactive GlcNAc transfer, scintillation counting (B3GNT2; 2 mM UDP-GlcNAc with UDP-[3H]GlcNAc): showed clear N-acetylglucosaminyltransferase activity toward the acceptor only with B3GNT2

B1: B3GNT1 (B4GAT1) (Homo sapiens) (protein)
chain: RSVDQVKAQLRTALASGGVLDASGDYRVYRGLLKTTMDPNDVILATHASVDNLLHLSGLLERWEGPLSVSVFAATKEEAQLATVLAYALSSHCPDMRARVAMHLVCPSRYEAAVPDPREPGEFALLRSCQEVFDKLARVAQPGINYALGTNVSYPNNLLRNLAREGANYALVIDVDMVPSEGLWRGLREMLDQSNQWGGTALVVPAFEIRRARRMPMNKNELVQLYQVGEVRPFYYGLCTPCQAPTNYSRWVNLPEESLLRPAYVVPWQDPWEPFYVAGGKVPTFDERFRQYGFNRISQACELHVAGFDFEVLNEGFLVHKGFKEALKFHPQKEAENQHNKILYRQFKQELKAKYPNSPRRC
notes: catalytic domain residues 54-415, secreted, transmembrane domain removed; N-terminal 8xHis-AviTag-sfGFP-TEV fusion cut by TEV; HEK293F host, Ni-NTA
Km (purified protein [1]): 4.0 mM
kcat (purified protein [1]): 0.25 s⁻¹
kcat/Km (purified protein [1]): 63 M⁻¹ s⁻¹
Km (purified protein [2]; 2 h): 3.0 mM
kcat (purified protein [2]; 2 h): 0.087 s⁻¹
kcat/Km (purified protein [2]; 2 h): 29 M⁻¹ s⁻¹

B2: LARGE (Homo sapiens) (protein)
chain: PSHRRGNHSKTYSMEEGTGDSENLRAGIVAGNSSECGQQPVVEKCETIHVAIVCAGYNASRDVVTLVKSVLFHRRNPLHFHLIADSIAEQILATLFQTWMVPAVRVDFYNADELKSEVSWIPNKHYSGIYGLMKLVLTKTLPANLERVIVLDTDITFATDIAELWAVFHKFKGQQVLGLVENQSDWYLGNLWKNHRPWPALGRGYNTGVILLLLDKLRKMKWEQMWRLTAERELMGMLSTSLADQDIFNAVIKQNPFLVYQLPCFWNVQLSDHTRSEQCYRDVSDLKVIHWNSPKKLRVKNKHVEFFRNLYLTFLEYDGNLLRRELFGCPSEADVNSENLQKQLSELDEDDLCYEFRRERFTVHRTHLYFLHYEYEPAADSTDVTLVAQLSMDRLQMLEAICKHWEGPISLALYLSDAEAQQFLRYAQGSEVLMSRHNVGYHIVYKEGQFYPVNLLRNVAMKHISTPYMFLSDIDFLPMYGLYEYLRKSVIQLDLANTKKAMIVPAFETLRYRLSFPKSKAELLSMLDMGTLFTFRYHVWTKGHAPTNFAKWRTATTPYRVEWEADFEPYVVVRRDCPEYDRRFVGFGWNKVAHIMELDVQEYEFIVLPNAYMIHMPHAPSFDITKFRSNKQYRICLKTLKEEFQQDMSRRYGFAALKYLTAENNS
notes: catalytic domains residues 91-756, secreted; N-terminal 8xHis-AviTag-sfGFP-TEV fusion kept; HEK293F host, Ni-NTA
Km (purified protein [2]; [3]): 6.0 mM
kcat (purified protein [2]; [3]): 0.005 s⁻¹
kcat/Km (purified protein [2]; [3]): 0.84 M⁻¹ s⁻¹
